Publication PMC4268634

Key:
Assay in all cases: SPR
[1] = target: Z_(VEGFR2_22)-(S4G)4-ABD035-(S4G)4-Z_(VEGFR2_40)
[2] = target: Z_(VEGFR2_40)-(S4G)4-ABD035-(S4G)4-Z_(VEGFR2_40)
[3] = target: Z_(VEGFR2_40)-(S4G)4-ABD035-(S4G)4-Z_(VEGFR2_22)

koff [1]: 0.00014 s⁻¹
koff [2]: 0.00079 s⁻¹
koff [3]: 0.00018 s⁻¹
Substance: murine VEGFR2 (Sino Biological) (from UniProt P35918 20-762) (receptor)
